This assay deals with T1, His-MyoD (1-320 aa) (UniProt P15172 1-320).
T1 sequence (looked up): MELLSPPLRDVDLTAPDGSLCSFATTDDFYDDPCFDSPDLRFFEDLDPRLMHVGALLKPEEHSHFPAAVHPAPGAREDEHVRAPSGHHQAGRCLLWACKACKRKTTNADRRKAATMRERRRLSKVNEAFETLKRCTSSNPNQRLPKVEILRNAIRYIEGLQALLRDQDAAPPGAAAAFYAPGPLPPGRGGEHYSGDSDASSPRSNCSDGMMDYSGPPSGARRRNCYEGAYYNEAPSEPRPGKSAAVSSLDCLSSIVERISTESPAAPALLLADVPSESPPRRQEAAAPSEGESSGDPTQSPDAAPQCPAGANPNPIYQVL
Description: far-Western, overlay or dot blot.

B1: GST-MLP-a (1-194 aa) (natural protein, human, UniProt P50461-1 1-194, looked up)
chain: MPNWGGGAKCGACEKTVYHAEEIQCNGRSFHKTCFHCMACRKALDSTTVAAHESEIYCKVCYGRRYGPKGIGYGQGAGCLSTDTGEHLGLQFQQSPKPARSVTTSNPSKFTAKFGESEKCPRCGKSVYAAEKVMGGGKPWHKTCFRCAICGKSLESTNVTDKDGELYCKVCYAKNFGPTGIGFGGLTQQVEKKE
Take B1: the binding result is listed as “binds”.

The record behind these values is publication PMC4416226 (The FEBS journal, 2014).
